Data published in patent US7521540B2, “CYR61 compositions and methods” (Munin Corporation, priority 1996, dated 2009).

B1: Cyr61: Cysteine-rich ECM signaling protein; murine sequence SEQ ID NO:2, recombinant from Baculovirus-infected Sf9 cells (protein, listed as Mus musculus)
chain: MSSSTFRTLAVAVTLLHLTRLALSTCPAACHCPLEAPKCAPGVGLVRDGCGCCKVCAKQLNEDCSKTQPCDHTKGLECNFGASSTALKGICRAQSEGRPCEYNSRIYQNGESFQPNCKHQCTCIDGAVGCIPLCPQELSLPNLGCPNPRLVKVSGQCCEEWVCDEDSIKDSLDDQDDLLGLDASEVELTRNNELIAIGKGSSLKRLPVFGTEPRVLFNPLHAHGQKCIVQTTSWSQCSKSCGTGISTRVTNDNPECRLVKETRICEVRPCGQPVYSSLKKGKKCSKTKKSPEPVRFTYAGCSSVKKYRPKYCGSCVDGRCCTPLQTRTVKMRFRCEDGEMFSKNVMMIQSCKCNYNCPHPNEASFRLYSLFNDIHKFRD
B2: Fisp12: Cysteine-rich murine protein, SEQ ID NO:6, mouse ortholog of CTGF (protein, listed as Mus musculus)
chain: MLASVAGPISLALVLLALCTRPATGQDCSAQCQCAAEAAPHCPAGVSLVLDGCGCCRVCAKQLGELCTERDPCDPHKGLFCDFGSPANRKIGVCTAKDGAPCVFGGSVYRSGESFQSSCKYQCTCLDGAVGCVPLCSMDVRLPSPDCPFPRRVKLPGKCCKEWVCDEPKDRTAVGPALAAYRLEDTFGPDPTMMRANCLVQTTEWSACSKTCGMGISTRVTNDNTFCRLEKQSRLCMVRPCEADLEENIKKGKKCIRTPKIAKPVKFELSGCTSVKTYRAKFCGVCTDGRCCTPHRTTTLPVEFKCPDGEIMKKNMMFIKTCACHYNCPGDNDIFESLYYRKMYGDMA

Assays:
cornea = assay: Cornea assay for angiogenic factors; assay type: in vivo, rat; conditions: for angiogenic effect in cornea assay: rat, in vivo
From the text: Another assay for modulators of angiogenesis is an in vivo assay for assessing the effect of a suspected modulator in the presence of an ECM signaling molecule-related biomaterial, such as Cyr61, on angiogenesis is the Cornea Assay. The Cornea Assay takes advantage of the absence of blood vessels in the cornea, which in the presence of an angiogenic factor, results in the detectable development of capillaries extending from the sclera into the cornea. Friedlander et al., Science 270:1500-1502 (1995). This ingrowth of new blood vessels from the sclera can be microscopically monitored. Further, the visually determined rate of migration can be used to assess changes in the rate of angiogenesis. These cornea assays may be performed using a wide variety of animal models. Preferably, the cornea assays are performed using rats. By way of example, an assay for suspected modulators of Cyr61 using this assay is disclosed. To perform this assay, Cyr61 is initially titrated using primary capillary endothelial cells to determine effective concentrations of Cyr61. Subsequently, Cyr61, in the presence or absence of a suspected modulator, is surgically implanted into the corneas of mammalian laboratory animals, e.g., rabbits or rats. In a preferred embodiment, Cyr61 (or Cyr61 and a suspected modulator) is embedded in a biocompatible matrix, using matrix materials and techniques that are standard in the art. Subsequently, eyes containing implants are visually observed for growth of the readily visible blood vessels within the eye. Control implantations may consist of physiologically balanced buffers embedded in the same type of matrix and implanted into eyes of the same type of laboratory animal receiving the Cyr61-containing implants.
Although rats of various sizes can be used in the cornea assay, a preferred size for the rats is 150-200 g/animal. Anesthesia is induced with Methoxyflurane and is maintained for 40-60 minutes with sodium pentobarbital (50 mg/kg, delivered intraperitoneally). The eyes are gently opened and secured in place by clamping the upper eyelid with a non-traumatic hemostat. Two drops of sterile proparacaine hydrochloride (0.5%) are then placed on each eye as to effect local anesthesia. Using a suitable surgical blade such as a No. 11 Bard Parker blade, an approximately 1.5 mm incision is made approximately 1 mm from the center of the cornea. […] Once the cornea pocket is made, the spatula is removed and the distance between the limbus and base of the pocket is measured to make sure the separation is at least about 1 mm. […]
Following surgery, animals are examined daily for seven days with the aid of a stereomicroscope to check for inflammation and responses. […] During this seven day period, animals are monitored for implant position and corneal exudate. […]

platelets = assay: Platelet adhesion assay; assay type: cell-based, human; conditions: for adhesion of unactivated platelets: PGl2 100 nM, coating 25 μg/ml; for adhesion of activated platelets: thrombin, U46619 or ADP
Experimental: Microtiter wells were coated with purified recombinant Fisp12/mCTGF or Cyr61, and the adhesion of isolated platelets to these proteins was detected with ^125I-mAb15, an anti-β3 monoclonal antibody (Frelinger et al., J. Biol. Chem 265:6346-6352 [1990]). Platelets were obtained from venous blood drawn from healthy donors and collected into acid-citrate-dextrose (ACD). Washed platelets were prepared by diffenential centrifugation as described (Kinlough-Rathbone et al. Thromb. Haemostas 2:291-308 [1997]), and finally resuspended in HEPES-Tyrode's buffer (5 mM HEPES, pH 7.35, 1 mM MgCl2, 1 mM CaCl2, 135 mM NaCl, 2.7 mM KCl, 11.9 mM NaHCO3, 1 mg/ml dextrose and 3.5 mg/ml BSA). The platelet concentration was adjusted to […].
Microtiter wells (Immulon 2 removawell strips, Dynex Technologies, Inc.) were coated with Cyr61, Fisp12/mCTGF, or fibrinogen (25 μg/ml, 50 μl/well) incubated overnight at 22° C., and then blocked with 3% BSA at 37° C. for 2 hours. Washed platelets were added to the wells (100 μl/well) in the presence and absence of platelet agonists and incubated at 37° C. for 30 minutes. The wells were washed with HEPES-Tyrode's buffer and adherent platelets were detected with ^125I-mAb15, an anti-β3 monoclonal antibody. Exposure to the labeled antibody ([…], 50 μl/well) proceeded for 1 hour at 22° C. After extensive washing with HEPES-Tyrode's buffer, bound radioactivity was determined by γ-counting. In inhibition studies, washed platelets were pre-incubated with blocking peptides or antibodies at 37° C. for 15 minutes prior to addition to microtiter wells.
The anti-β3 antibody was radioiodinated with carrier-free Na^125I (Amersham Corp.) using the IODO-BEADS iodination reagent (Pierce) to a specific activity of approximately 2 μCi/μg. […] As controls, BSA- and fibrinogen-coated (KabiVitrum Inc.) wells were also used. Initially, the adhesion of unactivated versus activated platelets to immobilized Fisp12/mCTGF and Cyr61 was compared. To ensure that plateltes were not activated during the washing procedures, PGl2 (100 nM), which inhibits activation by raising platelet cAMP levels, was added to the platelet suspensions. […]

Row | Molecule | eyes showing blood vessel growth after seven days (cornea; FGF 0.15 μM (six animals), Cyr61 1 μg/ml (seven animals)) | angiogenic effect in cornea assay (cornea) | adhesion of unactivated platelets (platelets) | adhesion of activated platelets (platelets)
1 | B1 | all seven | confirm the effect of angiogenic factors | failed to adhere | dramatic increase in platelte adhesion
2 | B2 | – | confirm the effect of angiogenic factors | failed to adhere | dramatic increase in platelte adhesion
